4 molecules from paper PMC6631321 (Science signaling, 2019) can be followed below.

Assay [1] has as its target the remaining proteins (α-actinin, afadin, band 4.1B, Scrib, and ZO-1). The assay can be described thus: co-IP.
Assay [2] addresses T1, RFP-ASPP2 (UniProt Q13625 1-1128).
T1 sequence (looked up): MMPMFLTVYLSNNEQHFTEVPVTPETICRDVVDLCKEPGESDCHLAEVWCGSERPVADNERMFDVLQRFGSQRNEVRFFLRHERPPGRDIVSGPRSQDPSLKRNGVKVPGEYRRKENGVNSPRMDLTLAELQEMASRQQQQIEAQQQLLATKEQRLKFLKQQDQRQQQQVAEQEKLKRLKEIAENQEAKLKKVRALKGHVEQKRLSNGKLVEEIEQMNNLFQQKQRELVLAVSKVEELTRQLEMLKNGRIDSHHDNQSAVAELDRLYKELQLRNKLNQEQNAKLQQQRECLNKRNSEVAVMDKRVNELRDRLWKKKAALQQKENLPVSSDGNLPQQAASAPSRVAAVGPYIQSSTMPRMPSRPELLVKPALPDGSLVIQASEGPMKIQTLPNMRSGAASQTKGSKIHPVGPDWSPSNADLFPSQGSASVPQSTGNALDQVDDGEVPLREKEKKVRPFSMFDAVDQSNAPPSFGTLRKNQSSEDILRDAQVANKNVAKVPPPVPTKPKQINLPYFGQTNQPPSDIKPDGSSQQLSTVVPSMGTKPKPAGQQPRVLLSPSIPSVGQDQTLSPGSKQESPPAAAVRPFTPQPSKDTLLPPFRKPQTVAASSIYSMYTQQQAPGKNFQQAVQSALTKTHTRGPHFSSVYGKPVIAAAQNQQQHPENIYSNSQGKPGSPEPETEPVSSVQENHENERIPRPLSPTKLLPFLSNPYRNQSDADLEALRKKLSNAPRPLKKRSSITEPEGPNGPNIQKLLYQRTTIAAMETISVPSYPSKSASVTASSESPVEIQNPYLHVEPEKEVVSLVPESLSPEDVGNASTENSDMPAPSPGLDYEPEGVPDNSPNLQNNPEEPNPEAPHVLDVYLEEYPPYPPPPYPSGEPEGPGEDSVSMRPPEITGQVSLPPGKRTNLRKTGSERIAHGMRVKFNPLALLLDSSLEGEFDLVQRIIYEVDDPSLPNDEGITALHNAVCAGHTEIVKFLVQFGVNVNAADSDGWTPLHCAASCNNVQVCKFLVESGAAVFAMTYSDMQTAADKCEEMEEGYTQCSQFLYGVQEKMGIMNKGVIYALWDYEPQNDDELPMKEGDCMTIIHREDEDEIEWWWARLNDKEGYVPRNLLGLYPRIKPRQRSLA
The assay can be described thus: pull-down.

The target of assay [3] is T2, RFP-Lats1 (UniProt O95835 1-1130).
T2 sequence (looked up): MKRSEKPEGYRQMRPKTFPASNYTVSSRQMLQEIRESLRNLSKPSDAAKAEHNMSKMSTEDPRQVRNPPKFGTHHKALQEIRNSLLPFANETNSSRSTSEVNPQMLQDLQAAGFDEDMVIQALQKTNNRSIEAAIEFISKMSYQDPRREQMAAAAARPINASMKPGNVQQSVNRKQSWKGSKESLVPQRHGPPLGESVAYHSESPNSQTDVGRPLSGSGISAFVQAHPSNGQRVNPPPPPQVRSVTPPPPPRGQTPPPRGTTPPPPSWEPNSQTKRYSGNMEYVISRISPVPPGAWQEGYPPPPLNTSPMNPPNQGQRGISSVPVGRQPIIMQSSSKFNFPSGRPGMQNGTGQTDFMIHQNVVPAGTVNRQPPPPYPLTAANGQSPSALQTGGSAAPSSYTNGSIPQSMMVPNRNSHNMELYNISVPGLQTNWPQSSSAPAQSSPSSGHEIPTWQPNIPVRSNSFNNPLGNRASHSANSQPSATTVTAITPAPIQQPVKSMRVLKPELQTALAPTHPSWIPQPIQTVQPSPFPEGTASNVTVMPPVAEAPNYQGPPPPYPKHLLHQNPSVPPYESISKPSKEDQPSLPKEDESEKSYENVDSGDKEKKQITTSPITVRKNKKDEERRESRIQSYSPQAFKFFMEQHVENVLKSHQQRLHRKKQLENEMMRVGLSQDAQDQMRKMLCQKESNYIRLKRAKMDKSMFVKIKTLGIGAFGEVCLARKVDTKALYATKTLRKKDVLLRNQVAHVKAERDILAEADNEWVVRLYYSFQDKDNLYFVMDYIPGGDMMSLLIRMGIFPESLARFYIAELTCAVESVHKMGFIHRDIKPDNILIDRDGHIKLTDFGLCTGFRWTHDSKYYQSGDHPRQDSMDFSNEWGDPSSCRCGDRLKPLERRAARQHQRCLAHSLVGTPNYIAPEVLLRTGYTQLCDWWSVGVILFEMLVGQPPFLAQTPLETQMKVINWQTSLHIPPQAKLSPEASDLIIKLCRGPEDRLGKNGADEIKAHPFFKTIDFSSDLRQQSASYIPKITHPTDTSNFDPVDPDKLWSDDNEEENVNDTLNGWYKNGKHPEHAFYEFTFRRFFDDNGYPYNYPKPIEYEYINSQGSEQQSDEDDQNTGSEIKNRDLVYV
The assay can be described thus: pull-down.

Assay [4] concerns the target RFP-Angiomotin, Q4VCS5. The assay can be described thus: pull-down. As to conditions: remark: other sources report otherwise.
Assay [5] concerns the target T2, RFP-Lats1. The assay can be described thus: co-IP.
Assay [6] deals with RFP-Angiomotin, Q4VCS5. The assay can be described thus: co-IP. Particulars: remark: other sources report otherwise.
Chain of RFP-Angiomotin, Q4VCS5 (Q4VCS5 whole entry): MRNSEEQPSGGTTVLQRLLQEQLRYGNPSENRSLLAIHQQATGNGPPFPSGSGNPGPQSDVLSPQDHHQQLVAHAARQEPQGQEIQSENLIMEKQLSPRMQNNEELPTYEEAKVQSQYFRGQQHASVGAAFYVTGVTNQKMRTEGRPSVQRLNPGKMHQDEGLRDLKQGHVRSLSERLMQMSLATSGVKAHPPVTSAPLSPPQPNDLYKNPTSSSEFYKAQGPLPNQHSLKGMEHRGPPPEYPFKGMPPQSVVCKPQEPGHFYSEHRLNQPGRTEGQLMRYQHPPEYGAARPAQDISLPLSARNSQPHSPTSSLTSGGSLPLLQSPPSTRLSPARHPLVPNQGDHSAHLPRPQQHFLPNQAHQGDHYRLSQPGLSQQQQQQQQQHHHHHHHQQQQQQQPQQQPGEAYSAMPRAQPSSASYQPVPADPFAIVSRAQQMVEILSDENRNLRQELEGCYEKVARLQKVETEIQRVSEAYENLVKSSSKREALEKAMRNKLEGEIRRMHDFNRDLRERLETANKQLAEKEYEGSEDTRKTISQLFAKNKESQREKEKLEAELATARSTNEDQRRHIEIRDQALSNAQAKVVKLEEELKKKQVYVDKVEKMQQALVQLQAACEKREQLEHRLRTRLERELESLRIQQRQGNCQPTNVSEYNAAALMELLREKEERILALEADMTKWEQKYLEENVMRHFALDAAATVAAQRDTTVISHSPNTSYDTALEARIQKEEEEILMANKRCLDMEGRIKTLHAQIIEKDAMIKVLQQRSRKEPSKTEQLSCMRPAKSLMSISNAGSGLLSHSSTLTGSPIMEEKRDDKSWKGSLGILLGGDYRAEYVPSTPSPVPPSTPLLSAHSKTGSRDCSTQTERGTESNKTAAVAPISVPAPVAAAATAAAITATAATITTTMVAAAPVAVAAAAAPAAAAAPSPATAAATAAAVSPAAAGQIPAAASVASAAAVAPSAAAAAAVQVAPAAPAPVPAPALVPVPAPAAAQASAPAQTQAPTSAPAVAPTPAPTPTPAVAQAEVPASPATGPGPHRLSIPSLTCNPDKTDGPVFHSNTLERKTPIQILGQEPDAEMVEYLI
For assay [7], the target named is T1, RFP-ASPP2. The assay can be described thus: pull-down. This is another data set of the same source.

Several values for one entry are separate records, joined by “and”; a condition that tells them apart may be missing. Equal values may be shown once. Bounds are passed on as bounds.

For “Merlin-NLuc (from UniProt P35240 1-595) (natural protein)”, the fold over the negative control (RFP alone), co-precipitated luciferase in assay [1] is 2 fold and 5 fold.

B1: Merlin-NLuc (natural protein, UniProt P35240 1-595, looked up)
chain: MAGAIASRMSFSSLKRKQPKTFTVRIVTMDAEMEFNCEMKWKGKDLFDLVCRTLGLRETWFFGLQYTIKDTVAWLKMDKKVLDHDVSKEEPVTFHFLAKFYPENAEEELVQEITQHLFFLQVKKQILDEKIYCPPEASVLLASYAVQAKYGDYDPSVHKRGFLAQEELLPKRVINLYQMTPEMWEERITAWYAEHRGRARDEAEMEYLKIAQDLEMYGVNYFAIRNKKGTELLLGVDALGLHIYDPENRLTPKISFPWNEIRNISYSDKEFTIKPLDKKIDVFKFNSSKLRVNKLILQLCIGNHDLFMRRRKADSLEVQQMKAQAREEKARKQMERQRLAREKQMREEAERTRDELERRLLQMKEEATMANEALMRSEETADLLAEKAQITEEEAKLLAQKAAEAEQEMQRIKATAIRTEEEKRLMEQKVLEAEVLALKMAEESERRAKEADQLKQDLQEAREAERRAKQKLLEIATKPTYPPMNPIPAPLPPDIPSFNLIGDSLSFDFKDTDMKRLSMEIEKEKVEYMEKSKHLQEQLNELKTEIEALKLKERETALDILHNENSDRGGSSKHNTIKKLTLQSAKSRVAFFEEL
Consider B1, for which the “fold over the negative control (RFP alone), bound luciferase” value came out at 125 fold in the assay with RFP-ASPP2 [2]; 268 fold in the assay with RFP-Lats1 [3]; 2300 fold in the assay with RFP-Angiomotin, Q4VCS5 [4]. In addition, the “fold over the negative control (RFP alone), co-precipitated luciferase” value with RFP-Lats1 [5] is more than 20 fold; with RFP-Angiomotin, Q4VCS5 [6], 100 fold.

B2: Merlin S518A (natural protein, UniProt P35240 1-595, looked up)
chain: MAGAIASRMSFSSLKRKQPKTFTVRIVTMDAEMEFNCEMKWKGKDLFDLVCRTLGLRETWFFGLQYTIKDTVAWLKMDKKVLDHDVSKEEPVTFHFLAKFYPENAEEELVQEITQHLFFLQVKKQILDEKIYCPPEASVLLASYAVQAKYGDYDPSVHKRGFLAQEELLPKRVINLYQMTPEMWEERITAWYAEHRGRARDEAEMEYLKIAQDLEMYGVNYFAIRNKKGTELLLGVDALGLHIYDPENRLTPKISFPWNEIRNISYSDKEFTIKPLDKKIDVFKFNSSKLRVNKLILQLCIGNHDLFMRRRKADSLEVQQMKAQAREEKARKQMERQRLAREKQMREEAERTRDELERRLLQMKEEATMANEALMRSEETADLLAEKAQITEEEAKLLAQKAAEAEQEMQRIKATAIRTEEEKRLMEQKVLEAEVLALKMAEESERRAKEADQLKQDLQEAREAERRAKQKLLEIATKPTYPPMNPIPAPLPPDIPSFNLIGDSLSFDFKDTDMKRLAMEIEKEKVEYMEKSKHLQEQLNELKTEIEALKLKERETALDILHNENSDRGGSSKHNTIKKLTLQSAKSRVAFFEEL
On to B2, for which, in the assay with RFP-ASPP2 [7], the “fold greater than binding to wild-type Merlin” value was approximately 2 fold.

B3: Merlin S518D (natural protein, UniProt P35240 1-595, looked up)
chain: MAGAIASRMSFSSLKRKQPKTFTVRIVTMDAEMEFNCEMKWKGKDLFDLVCRTLGLRETWFFGLQYTIKDTVAWLKMDKKVLDHDVSKEEPVTFHFLAKFYPENAEEELVQEITQHLFFLQVKKQILDEKIYCPPEASVLLASYAVQAKYGDYDPSVHKRGFLAQEELLPKRVINLYQMTPEMWEERITAWYAEHRGRARDEAEMEYLKIAQDLEMYGVNYFAIRNKKGTELLLGVDALGLHIYDPENRLTPKISFPWNEIRNISYSDKEFTIKPLDKKIDVFKFNSSKLRVNKLILQLCIGNHDLFMRRRKADSLEVQQMKAQAREEKARKQMERQRLAREKQMREEAERTRDELERRLLQMKEEATMANEALMRSEETADLLAEKAQITEEEAKLLAQKAAEAEQEMQRIKATAIRTEEEKRLMEQKVLEAEVLALKMAEESERRAKEADQLKQDLQEAREAERRAKQKLLEIATKPTYPPMNPIPAPLPPDIPSFNLIGDSLSFDFKDTDMKRLDMEIEKEKVEYMEKSKHLQEQLNELKTEIEALKLKERETALDILHNENSDRGGSSKHNTIKKLTLQSAKSRVAFFEEL
Turning to B3, in the assay with RFP-ASPP2 [7], the “fold less than binding to wild-type Merlin” value was more than 2 fold.
